Measured values taken from the Immune Epitope Database (IEDB).

Experiments:
[1] = biological target: HLA-A*02:01; experiment: IEDB peptide-MHC binding, purified MHC/competitive/fluorescence; ≥ and ≤ were set here for values at or beyond the usual limits of such assays
[2] = biological target: HLA-B*15:01; experiment: as above
[3] = biological target: HLA-A*24:02; experiment: as above
[4] = biological target: HLA-B*57:01; experiment: IEDB peptide-MHC binding, purified MHC/competitive/radioactivity; filed as Kd, often an IC50 or EC50 that approximates it; ≥ and ≤ were set here for values at or beyond the usual limits of such assays
[5] = biological target: HLA-B*58:01; experiment: as above
[6] = biological target: HLA-B*46:01; experiment: IEDB peptide-MHC binding, purified MHC/direct/fluorescence; filed as Kd, often an IC50 or EC50 that approximates it; ≥ and ≤ were set here for values at or beyond the usual limits of such assays
[7] = biological target: HLA-A*29:02; experiment: as above
[8] = biological target: HLA-A*11:01; experiment: as above
[9] = biological target: HLA-A*03:01; experiment: as above
[10] = biological target: HLA-B*07:02; experiment: as above
[11] = biological target: HLA-A*02:01; experiment: as above
[12] = biological target: HLA-A*01:01; experiment: as above
[13] = biological target: HLA-B*44:02; experiment: as above
[14] = biological target: HLA-B*15:01; experiment: as above
[15] = biological target: HLA-B*27:05; experiment: as above
[16] = biological target: HLA-B*48:01; experiment: as above
[17] = biological target: HLA-B*57:01; experiment: as above
[18] = biological target: HLA-B*08:01; experiment: as above
[19] = biological target: HLA-B*58:01; experiment: as above
[20] = biological target: HLA-A*31:01; experiment: as above
[21] = biological target: HLA-B*15:17; experiment: as above; conditions: source organism: Yellow fever virus
[22] = biological target: HLA-A*26:01; experiment: as above; conditions: source organism: Yersinia pestis
[23] = biological target: HLA-A*69:01; experiment: as above
[24] = biological target: HLA-B*51:01; experiment: as above
[25] = biological target: HLA-A*02:19; experiment: as above; conditions: source organism: Yersinia enterocolitica subsp. enterocolitica 8081
[26] = biological target: HLA-B*40:01; experiment: as above; conditions: source organism: Yersinia pestis
[27] = biological target: HLA-A*02:12; experiment: as above; conditions: source organism: Yersinia enterocolitica subsp. enterocolitica 8081
[28] = biological target: HLA-B*08:02; experiment: as above; conditions: source organism: Vibrio parahaemolyticus AQ3810
[29] = biological target: HLA-B*53:01; experiment: IEDB peptide-MHC binding, purified MHC/competitive/radioactivity; filed as Kd, often an IC50 or EC50 that approximates it; ≥ and ≤ were set here for values at or beyond the usual limits of such assays; conditions: source organism: Dengue virus 3 Martinique/1243/1999
[30] = biological target: HLA-A*11:01; experiment: IEDB peptide-MHC binding, purified MHC/competitive/fluorescence; ≥ and ≤ were set here for values at or beyond the usual limits of such assays
[31] = biological target: HLA-A*03:01; experiment: as above
[32] = biological target: HLA-A*32:01; experiment: IEDB peptide-MHC binding, purified MHC/competitive/radioactivity; filed as Kd, often an IC50 or EC50 that approximates it; ≥ and ≤ were set here for values at or beyond the usual limits of such assays
[33] = biological target: HLA-B*18:01; experiment: IEDB peptide-MHC binding, purified MHC/direct/fluorescence; filed as Kd, often an IC50 or EC50 that approximates it; ≥ and ≤ were set here for values at or beyond the usual limits of such assays; conditions: source organism: Mammarenavirus juninense
[34] = biological target: HLA-A*24:02; experiment: IEDB peptide-MHC binding, purified MHC/competitive/radioactivity; filed as Kd, often an IC50 or EC50 that approximates it; ≥ and ≤ were set here for values at or beyond the usual limits of such assays; conditions: source organism: Dengue virus 3 Martinique/1243/1999
[35] = source organism: Zaire ebolavirus
[36] = source organism: Vaccinia virus Copenhagen
[37] = source organism: Dengue virus 1 Brazil/97-11/1997
[38] = source organism: Mammarenavirus lassaense
[39] = source organism: Dengue virus 4 Philippines/H241/1956
[40] = source organism: Yersinia enterocolitica subsp. enterocolitica 8081
[41] = source organism: Yersinia pestis Nepal516
[42] = source organism: Yersinia pestis
[43] = source organism: Dengue virus 2 Jamaica/1409/1983
[44] = source organism: Dengue virus 3 Martinique/1243/1999
[45] = source organism: Sudan ebolavirus
[46] = source organism: Giardia lamblia ATCC 50803
[47] = source organism: Dengue virus 3 Singapore/8120/1995
[48] = source organism: Lassa virus Josiah
[49] = source organism: Mammarenavirus juninense
[50] = source organism: Bacillus anthracis

Q: With AMNEENRFV as the sequence, how does the IC50 [1, 35] read?
A: 6.8 µM

Q: And the IC50 [2, 35]?
A: ≥ 220 µM

Q: What does the source list for ASPMLYQLL?
A: IC50 [1, 36]: 39.6 µM; IC50 [2, 36]: 37.2 µM; IC50 [3, 36]: 0.233 µM

Q: With CTSQILLMRT as the sequence, how does the Kd [4, 37] read?
A: 2.41 µM

Q: What about the Kd [5, 37] of the same sequence?
A: 17.1 µM

Q: Which results are given for DIKLIDIAL?
A: Kd [6, 38]: ≥ 20 µM; Kd [7, 38]: ≥ 20 µM; Kd [8, 38]: ≥ 20 µM; Kd [9, 38]: ≥ 20 µM; Kd [10, 38]: ≥ 20 µM; Kd [11, 38]: ≥ 20 µM; Kd [12, 38]: ≥ 20 µM; Kd [13, 38]: ≥ 20 µM; Kd [14, 38]: ≥ 20 µM; Kd [15, 38]: ≥ 20 µM; Kd [16, 38]: ≥ 20 µM; Kd [17, 38]: ≥ 20 µM; Kd [18, 38]: 0.894 µM; Kd [19, 38]: ≥ 20 µM; Kd [20, 38]: ≥ 20 µM

Q: What does the source list for ESSSNPTIEE?
A: Kd [4, 39]: 2.32 µM; Kd [5, 39]: 9.49 µM

Q: For ESWIVDRQW, which Kd [21] is on record?
A: 0.135 µM

Q: And the Kd ([17]; source organism: Yellow fever virus)?
A: 0.0195 µM

Q: Which results are given for ETIFTVLAL?
A: Kd [7, 40]: 0.182 µM; Kd [8, 41]: ≥ 20 µM; Kd [9, 41]: ≥ 20 µM; Kd [10, 42]: 4.5 µM; Kd [11, 41]: ≥ 20 µM; Kd [22]: 0.00767 µM; Kd [12, 41]: ≥ 20 µM; Kd [13, 41]: ≥ 20 µM; Kd [14, 41]: ≥ 20 µM; Kd [15, 41]: ≥ 20 µM; Kd [17, 40]: ≥ 20 µM; Kd [23, 42]: 0.0035 µM; Kd [24, 40]: ≥ 20 µM; Kd [25]: ≥ 20 µM; Kd [18, 41]: ≥ 20 µM; Kd [26]: 2.41 µM; Kd [27]: ≥ 20 µM; Kd [19, 41]: ≥ 20 µM; Kd [20, 41]: ≥ 20 µM

Q: With FGSLGGVFTS as the sequence, how does the Kd [4, 43] read?
A: 2.18 µM

Q: And the Kd [5, 43]?
A: 5.33 µM

Q: FLPNPAFIH was tested. Which IC50 ([1]; source organism: Variola virus) did it give?
A: 2.11 µM

Q: And the IC50 ([2]; source organism: Variola virus)?
A: 25.5 µM

Q: And the IC50 ([3]; source organism: Variola virus)?
A: 0.497 µM

Q: How did the Kd [28] turn out when FLRKHNEGL was run?
A: 1.75 µM

Q: With GATTETPTW as the sequence, how does the Kd [29] read?
A: 0.0692 µM

Q: And the Kd [4, 44]?
A: 0.0804 µM

Q: What about the Kd [5, 44] of the same sequence?
A: 0.00208 µM

Q: GILGSLGLR was tested. Which IC50 [30, 45] did it give?
A: 3.84 µM

Q: And the IC50 [31, 45]?
A: 15.2 µM

Q: And the IC50 [1, 45]?
A: 3.62 µM

Q: GLITGGRRT was tested. Which IC50 [30, 35] did it give?
A: ≥ 99.4 µM

Q: What about the IC50 [31, 35] of the same sequence?
A: ≥ 141 µM

Q: And the IC50 [1, 35]?
A: 14.7 µM

Q: And the IC50 [3, 35]?
A: 19 µM

Q: Which IC50 [1, 45] does the source give for HMQISTIGI here?
A: 4.09 µM

Q: What about the IC50 [2, 45] of the same sequence?
A: 9.61 µM

Q: What about the IC50 [3, 45] of the same sequence?
A: 15.6 µM

Q: Which results are given for IITPIVFYR?
A: IC50 [30, 36]: 0.263 µM; IC50 [31, 36]: 1.49 µM; IC50 [1, 36]: ≥ 132 µM; IC50 [3, 36]: 20.3 µM

Q: ISNSVAQAR was tested. Which IC50 [30, 35] did it give?
A: 49.2 µM

Q: What about the IC50 [31, 35] of the same sequence?
A: ≥ 110 µM

Q: What does the source list for KAIDFLLQR?
A: IC50 [30, 35]: 0.693 µM; IC50 [31, 35]: 28.8 µM; IC50 [1, 35]: 9.59 µM; IC50 [3, 35]: ≥ 161 µM

Q: KAKGSRAIW was tested. Which Kd [4, 44] did it give?
A: 0.0101 µM

Q: And the Kd [5, 44]?
A: 0.279 µM

Q: How did the Kd [4, 43] turn out when KASFIEVKSC was run?
A: 0.109 µM

Q: And the Kd [5, 43]?
A: 0.37 µM

Q: Which IC50 [30, 35] does the source give for KILTAGLSV here?
A: ≥ 159 µM

Q: What about the IC50 [31, 35] of the same sequence?
A: 36.3 µM

Q: What about the IC50 [1, 35] of the same sequence?
A: 2.56 µM

Q: With KLRSNALSL as the sequence, how does the Kd [10, 46] read?
A: 0.008 µM

Q: And the Kd [14, 46]?
A: 0.025 µM

Q: And the Kd [24, 46]?
A: ≥ 20 µM

Q: Which results are given for KVMEITAEW?
A: Kd [4, 47]: 0.0181 µM; Kd [32, 47]: 0.0143 µM; Kd [5, 47]: 0.00109 µM

Q: What does the source list for LPTKLRPSA?
A: Kd [10, 48]: 0.103 µM; Kd [24, 48]: ≥ 20 µM

Q: What does the source list for LQLFLRATT?
A: IC50 [1, 45]: ≥ 125 µM; IC50 [2, 45]: ≥ 91.4 µM

Q: What does the source list for PATLLVWHTW?
A: Kd [4, 44]: 1.39 µM; Kd [32, 44]: 3.67 µM; Kd [5, 44]: 0.278 µM

Q: How did the IC50 [30, 35] turn out when PLARTAKVK was run?
A: 48.4 µM

Q: And the IC50 [31, 35]?
A: 4.15 µM

Q: With PPDGVRGFP as the sequence, how does the IC50 [30, 45] read?
A: 63.2 µM

Q: What about the IC50 [31, 45] of the same sequence?
A: 67.1 µM

Q: With QLAKRSEIL as the sequence, how does the Kd [6, 49] read?
A: ≥ 20 µM

Q: And the Kd [7, 49]?
A: ≥ 20 µM

Q: And the Kd [8, 49]?
A: ≥ 20 µM

Q: And the Kd [9, 49]?
A: ≥ 20 µM

Q: And the Kd [12, 49]?
A: ≥ 20 µM

Q: What about the Kd [13, 49] of the same sequence?
A: ≥ 20 µM

Q: And the Kd [15, 49]?
A: ≥ 20 µM

Q: What about the Kd [16, 49] of the same sequence?
A: ≥ 20 µM

Q: And the Kd [17, 49]?
A: ≥ 20 µM

Q: What about the Kd [23, 49] of the same sequence?
A: ≥ 20 µM

Q: And the Kd [18, 49]?
A: 1.3 µM

Q: What about the Kd [33] of the same sequence?
A: ≥ 20 µM

Q: What about the Kd [19, 49] of the same sequence?
A: ≥ 20 µM

Q: What about the Kd [20, 49] of the same sequence?
A: ≥ 20 µM

Q: Which IC50 [31, 45] does the source give for RKAIDFLLR here?
A: ≥ 212 µM

Q: What does the source list for RPQHVKKSA?
A: Kd [10, 50]: 0.0085 µM; Kd ([14]; source organism: Bacillus cereus NVH0597-99): ≥ 20 µM; Kd [24, 50]: ≥ 20 µM

Q: What does the source list for SASEAVNDSR?
A: Kd [4, 39]: 1.39 µM; Kd [5, 39]: 0.0401 µM

Q: For SLTESDMDY, which IC50 [1, 35] is on record?
A: ≥ 140 µM

Q: And the IC50 [2, 35]?
A: 68.3 µM

Q: With TSSQQKADWI as the sequence, how does the Kd [4, 43] read?
A: 2.59 µM

Q: What about the Kd [5, 43] of the same sequence?
A: 1.07 µM

Q: Which Kd [34] does the source give for WMAEIPLQW here?
A: 0.174 µM

Q: What about the Kd [5, 44] of the same sequence?
A: 0.0138 µM

Q: Which results are given for YFGPAAEGI?
A: IC50 [1, 35]: 60 µM; IC50 [2, 35]: ≥ 197 µM; IC50 [3, 35]: 0.253 µM
